For experiment [1], the target named is T1, human Tim-3 expressed on cells (Jurkat cells stably expressing, Expi293 cells transiently expressing, … (human, UniProt Q8TDQ0 22-301)).
T1 construct: whole, on cells; One entry for all cell-surface forms; the cell type is named under assay; also called human Tim-3 expressed on the cell membrane
The experiment can be described thus: flow cytometry on Jurkat cells stably expressing human Tim-3, KD from MFI curve. Background: Flow cytometry measures light scatter and fluorescence of single cells or particles in a stream.

Experiment [2] concerns the target T2, biotinylated human Tim-3-Fc antigen (in-house preparation) (human, biotinylated).
T2 construct: limits of the Tim-3 part not given
The experiment can be described thus: competition ELISA: biotinylated human Tim-3-Fc premixed with the antibody, added to plate-bound human Galectin-9 (blocked ligand); streptavidin-HRP; Binding (%). (In general: In an ELISA, binding on a coated surface is turned into a signal by an enzyme label.)

Experiment [3] has as its target T1, human Tim-3 expressed on cells (Jurkat …). The experiment can be described thus: flow cytometry on Expi293 cells transiently expressing human Tim-3, KD from MFI curve.
Experiment [4] has the same target. The experiment can be described thus: flow cytometry on activated human CD4 T cells, KD from MFI curve.
Experiment [5] addresses T2, biotinylated human Tim-3-Fc antigen …. The experiment can be described thus: competition flow cytometry, biotinylated Tim-3-Fc premixed with antibody, binding to phosphatidylserine on apoptotic Jurkat cells (ligand not a protein).
The target in experiment [6] is T1, human Tim-3 expressed on cells (Jurkat …). The experiment can be described thus: flow cytometry on activated human CD8 T cells, KD from MFI curve.
Experiment [7] addresses T3, human Tim-3 IgV domain (aa. 22-130) (human, UniProt Q8TDQ0 22-130).
T3 construct: range 22-130
The experiment can be described thus: gel filtration of the complex and X-ray crystallography, 2.11 angstrom. In general terms: In gel filtration, larger molecules generally elute earlier.

For orientation: Kd means a measure of binding affinity in units of concentration. A low value points to higher affinity. The IC50 is the concentration that gives 50% inhibition.

B1: Ch003-LA antibody (antibody, V domains shown)
VH: EVMLMESGGGLVKLGGSLKLSCAASGFTFSSYYMSWVRQTPEKRLEWVATISNSGGSIYYLDSVKDRFTISRDNAKNTLYLQMSSLNSEDTAVYYCARDPYYSNYVPMDYWGQGTSVTVSS
VL: SIVMTQTPKFMSTSVGDRVSVTCKASQYVDTYVAWYQQKPGQSPKPLIYSASTRHTGVPARFTGSGSGTDFTLTISNVQSEDLAEYFCAQYSSSPLTFGAGTKLELK
notes: IgG1_LALA type antibody (L234A and L235A in the Fc region of IgG1)
Turning to B1, the dissociation constant Kd amounted to 0.0828 nM in experiment [1], 0.891 nM in experiment [3], 0.105 nM in experiment [4] and 0.112 nM in experiment [6]. In addition, the “IC50 (read off the curve)” value in experiment [2] was roughly 0.5 nM. In experiment [5], this molecule had a 50% inhibitory concentration (IC50) of 9.91 nM.

B2: Hu149_83_scFv antibody (scFv, not shown: small tags and cut ends)
scFv: QVQLVQSGAEVKKPGASVKVSCKASGYTFTDYYMDWVRQAPGQGLEWLGYIYPNKGGTSYNQKFKGRVTMTTDKSTSTAYMELRSLRSDDTAVYYCARSGYGNYYTMDYWGQGTTVTVSSGGGGSGGGGSGGGGSGGGGSDIVMTQSQKFMSTSVGDRVSITCKASQSVGNNVAWYQQKPGQSPKLLIYYASNRYTGVPDRFTGSGSGTDFTLTISNMQSEDLADYFCQQHYSSPSTFGGGTKLEIK
notes: Secreted from E. coli with an N-terminal pelB leader (left out)
Turning to B2, the binding result in experiment [7] was “binds”.

The record behind these values is patent US20240391997A1 (BRIGHTPATH BIOTHERAPEUTICS, published 2024).
